Patent US20250368729A1
Substitutions are numbered along the chain they refer to.

B1: humanized antibody VH6/VL3 (antibody, V domains shown)
VH: QVQLQESGPGLVKPSETLSLTCTVSGFSLSSYGVSWVRQPPGKGLEWLGVIWGDGSTNYHPNLMSRLSISKDTSKNQFSLKLSSVTAADTATYYCVTLDYWGQGTSVTVSS
VL: DVVMTQSPLSLPVTLGQPASISCRSSQSLVHRNGNTYLHWYLQRPGQSPRLLIYKVSNRFSGVPDRFSGSGSGTDFTLKISRVEAEDVGLYFCFQTTYVPNTFGGGTKLEIK
B2: humanized antibody VH10/VL4 (antibody, V domains shown)
VH: B1 VH with V37I, N76S, F78V, S79L, T92V
VL: B1 VL with Y41F, L42Q, L90V
B3: humanized antibody VH8/VL4 (antibody, V domains shown)
VH: B1 VH with V37I, L48I, L67V, S68T, N76S, T92V
VL: B1 VL with Y41F, L42Q, L90V
B4: humanized antibody VH7/VL4 (antibody, V domains shown)
VH: B1 VH with V37I, L48I, L67V, S68T, F78V, S79L, T92V
VL: B1 VL with Y41F, L42Q, L90V

Columns and labels:
[1] = target: synthetic amyloid-like fibrils of recombinant amyloidogenic λ6 variable domain protein (rVλ6Wil); test: EuLISA, fibrils coated on plate (FIG. 13A)
[2] = target: synthetic amyloid-like fibrils of recombinant amyloidogenic λ6 variable domain protein (rVλ6Wil); test: EuLISA, fibrils coated on plate (FIG. 13B)

Binder | EC50 [1] | EC50 [2]
B1 | 95 nM | 95 nM
B2 | 17 nM | 
B3 | 16 nM | 
B4 | 75 nM | 
